From patent US20250034275A1 (CHIA TAI TIANQING PHARMACEUTICAL GROUP, published 2025)

Assays:
[1] = target: T1, human Trop-2 (on the surface of human cell lines) (human, UniProt P09758 27-323); test: cell-based or functional assay
T1 sequence: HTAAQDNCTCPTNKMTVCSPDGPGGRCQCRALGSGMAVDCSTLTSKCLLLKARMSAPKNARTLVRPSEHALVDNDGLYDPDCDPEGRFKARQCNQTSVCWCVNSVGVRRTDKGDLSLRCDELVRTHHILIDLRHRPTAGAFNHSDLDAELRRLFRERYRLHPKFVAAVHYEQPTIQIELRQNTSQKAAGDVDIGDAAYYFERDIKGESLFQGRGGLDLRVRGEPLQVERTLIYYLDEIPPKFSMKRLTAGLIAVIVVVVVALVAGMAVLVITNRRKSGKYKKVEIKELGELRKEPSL

[2] = target: T1, human Trop-2 (on the surface of human …); test: cell-based or functional assay; remark: listed apart in the source
[3] = target: T1, human Trop-2 (on the surface of human …); test: flow cytometry, HCC38 cells
Description: (§1) Tumor cells expressing Trop-2 were prepared into a cell suspension (0.5-1×10⁶ cells/mL) using the FACS buffer (Miltenyi Biotec, 130-091-221), and the cell suspension was added to a 96-well V-bottom plate at 100 μL/well. After centrifugation and removal of the supernatant, the test antibodies diluted with the FACS buffer to different concentrations (0.006 nM-100 nM) were each added at 50 μL/well. The mixture was incubated in the dark in a 4° C. refrigerator for 1 h. The plate was then washed 3 times with the FACS buffer by centrifugation at 300 g, and Alexa Fluor 488 goat anti-human IgG (H+L) (Bio-legend, 409304, 1:500 dilution) at working concentration was added. The mixture was incubated in the dark in a 4° C. refrigerator for 40 min. The plate was then washed 3 times with the FACS buffer by centrifugation at 300 g, the geometric mean fluorescence intensity (MFI) was measured on a Sartorius iQue3 flow cytometer, and the binding EC₅₀ values of the antibodies for tumor cells with different Trop-2 expression levels were calculated

[4] = target: T1, human Trop-2 (on the surface of human …); test: flow cytometry, HCC1806 cells
Description: as §1

[5] = target: T1, human Trop-2 (on the surface of human …); test: flow cytometry, OVCAR-3 cells
Description: as §1

human Trop-2-His [6] = target: T2, human Trop-2-His (human, UniProt P09758 27-274, limits assumed); test: ELISA, plate-coated human Trop-2-His
T2 construct: by analogy with the macaque construct it is probably the extracellular domain with a His tag; also called Trop-2-His protein
T2 sequence: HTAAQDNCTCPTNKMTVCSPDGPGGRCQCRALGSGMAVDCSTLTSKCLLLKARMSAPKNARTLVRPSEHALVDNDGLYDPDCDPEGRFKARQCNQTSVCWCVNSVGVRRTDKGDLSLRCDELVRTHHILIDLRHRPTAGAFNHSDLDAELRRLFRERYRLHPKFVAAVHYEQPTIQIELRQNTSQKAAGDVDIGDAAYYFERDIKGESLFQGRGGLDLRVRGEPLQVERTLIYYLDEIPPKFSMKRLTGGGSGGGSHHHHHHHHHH
Description: (§2) After the liquid was discarded, 2% BSA (SIGMA, B2064-100G) diluted with PBS was added at 300 μL/well for blocking, and the mixture was incubated at 37° C. for 2 h. After the blocking was completed, the blocking buffer was discarded, the plate was washed 3 times with PBST buffer (pH 7.4 PBS containing 0.1% tween-20), the antibody solution diluted in a gradient was added at 100 μL/well, and the mixture was incubated at 37° C. for 1 h. After the incubation was completed, the plate was washed 3 times with PBST, the goat anti-human IgG (H+L) (JacksonImmunoResearch, 109-035-098, 1:5000 dilution) was added at 100 μL/well, and the mixture was incubated at 37° C. for 1 h. After the plate was washed 3 times with PBST, a TMB chromogenic substrate (TIANGEN, PA107-01) was added at 100 μL/well. The mixture was incubated at room temperature for 10-15 min, and then 1 M H₂SO₄ was added at 50 μL/well to terminate the reaction. The absorbance values at 450 nm were taken using a microplate reader. The binding curves of antibodies for antigen were fitted using software, and the EC₅₀ values were calculated.

Macaque Trop-2-His = target: T3, Macaque Trop-2-His (macaque, UniProt P09758 27-274 (human entry)); test: ELISA, plate-coated macaque Trop-2-His
T3 construct: Extracellular domain of macaque Trop-2 recombinantly linked to His; also called monkey Trop-2-His protein; monkey Trop-2
T3 chain: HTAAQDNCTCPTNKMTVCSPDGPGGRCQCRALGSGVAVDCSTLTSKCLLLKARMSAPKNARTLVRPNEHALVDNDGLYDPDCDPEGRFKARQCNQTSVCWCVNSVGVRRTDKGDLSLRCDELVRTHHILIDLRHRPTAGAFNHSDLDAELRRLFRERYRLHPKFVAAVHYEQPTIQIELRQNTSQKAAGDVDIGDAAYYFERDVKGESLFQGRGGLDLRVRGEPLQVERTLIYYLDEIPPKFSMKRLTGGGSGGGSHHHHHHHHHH
Description: as §2, with “times with the PBST buffer” for “times with PBST buffer”

human Trop-2-His [7] = target: T2, human Trop-2-His; test: SPR (Biacore 8K), antibody captured, Trop-2-His as analyte
Text: The affinity of antibodies for human Trop-2-His was detected in the form of antibody capturing. The antibody was affinity-captured by a CM5 (Cat. #29149603, GE) biosensor chip conjugated with an anti-human IgG antibody (from human antibody capture kit, Cat. #29234600, GE), then the antigen human Trop-2-His flowed on the surface of the chip, and a Biacore 8K instrument was used for detecting reaction signals in real time to obtain association and dissociation curves. After dissociation was completed for each assay cycle, the chip was washed clean and regenerated with a regeneration buffer, 3M MgCl₂ (from human antibody capture kit, Cat. #29234600, GE). The association and dissociation curves were collected by Biacore 8K Control Software 3.0 in real time, and the data were analyzed by Biacore Insight Evaluation Software 3.0. The data were fitted using a Langmuir 1:1 model after double subtraction (namely, in each cycle, the contrast channel signal was subtracted from the experimental channel signal, and the sample signal was subtracted from the blank signal), and the association rate constant Ka, the dissociation rate constant Kd, and the equilibrium constant KD were calculated.

B1: ch-Ab21 (antibody, human IgG1, kappa, V domains shown)
VH: EVQLKQSGPGLVQPSQSLSITCTVSGFSLRNYGVHWVRQSPGKGLEWLGVIWSSGTTDYNAAFISRLSITKDNSKSQVFFKMNSLQVDDTAIYNCARDGDYDYYTMDYWGQGTSVTVSS
VL: AIVLTQSPASLAVSLGQRATISCRASKSVSTSAYSYIHWYQQKPGQPPKLLIYLTSNLESGVPARFSGSGSGTDFTLNIHPVEEEDAATYYCQHSRELPYTFGGGTKLEIKR
notes: Mouse VH/VL on human IgG1 and human kappa constant regions; also called chimeric antibody of Ab21
ADCC reporter (Jurkat-CD16a v158-NFAT-luciferase), target cell H322, EC50 [1]: 40 pM
ADCC reporter (Jurkat-CD16a v158-NFAT-luciferase), target cell HCC1806, EC50 [1]: 80 pM
ADCC, PBMC killing (LDH), H322, EC50 [2]: 130 pM
ADCC, PBMC killing (LDH), H322, Maximum killing (%) [2]: 54%
ADCC, PBMC killing (LDH), HCC1806, EC50 [2]: 30 pM
ADCC, PBMC killing (LDH), HCC1806, Maximum killing (%) [2]: 40.3%
EC50 [3]: 640 pM
EC50 [4]: 650 pM
EC50 [5]: 1020 pM
EC50 (human Trop-2-His [6]): 165 pM
EC50 (Macaque Trop-2-His): 93 pM

B2: hz-Ab2-2.4 (antibody, human IgG1, kappa, V domains shown)
VH: QVQLQESGPGLVKPSETLSLTCTVSGFSLTYYGIDWIRQPPGKGLEWIGVIWGSGNTKYNSALKSRVTISKDNSKSQVYLKLSSVTAADTAVYYCARFYEGFAYWGQGTLVTVSS
VL: DIQMTQSPSSLSASVGDRVTITCRASQDINSYLSWFQQKPGKAPKTLIYRANRLVEGVPSRFSGSGSGQDFTLTISSLQPEDFATYYCLQYDEYPLTFGQGTKVEIKR
notes: Humanized antibody
ADCC reporter (Jurkat-CD16a v158-NFAT-luciferase), target cell H322, EC50 [1]: 660 pM
ADCC reporter (Jurkat-CD16a v158-NFAT-luciferase), target cell HCC1806, EC50 [1]: 1510 pM
ADCC, PBMC killing (LDH), H322, EC50 [2]: 70 pM
ADCC, PBMC killing (LDH), H322, Maximum killing (%) [2]: 46.7%
ADCC, PBMC killing (LDH), HCC1806, EC50 [2]: 150 pM
ADCC, PBMC killing (LDH), HCC1806, Maximum killing (%) [2]: 33.3%
EC50 [3]: 450 pM
EC50 [4]: 1230 pM
EC50 (human Trop-2-His [6]): 100 pM
EC50 (Macaque Trop-2-His): 70 pM
Kd (human Trop-2-His [7]): 11600 pM
koff (human Trop-2-His [7]): 0.00483 s⁻¹
kon (human Trop-2-His [7]): 415000 M⁻¹ s⁻¹

B3: ch-Ab35 (antibody, human IgG1, kappa, V domains shown)
VH: EVQLQQSGPDLVRPGASVKLSCKASGYTFTSSDINWVKQRPGQGLEWIGWIYPRDGSKKYNEKFKGKATLTVDTSSSTAYMEVHSLTSEDSAVYFCATRFATVVSNYGLDPWGQGTSVTVSS
VL: AIVLTQSPAIMSASPGEKVTMTCSASSSVNYIYWYQRKPGSSPRLLIYDTSNLASGVPVRFSGSGSGTSYSLTISRMEAEDAATYYCQQWNSYPLTFGAGTKLELKR
notes: Mouse VH/VL on human IgG1 and human kappa constant regions; also called chimeric antibody of Ab35
ADCC reporter (Jurkat-CD16a v158-NFAT-luciferase), target cell H322, EC50 [1]: 20 pM
ADCC reporter (Jurkat-CD16a v158-NFAT-luciferase), target cell HCC1806, EC50 [1]: 40 pM
ADCC, PBMC killing (LDH), H322, EC50 [2]: 10 pM
ADCC, PBMC killing (LDH), H322, Maximum killing (%) [2]: 51.9%
ADCC, PBMC killing (LDH), HCC1806, EC50 [2]: 20 pM
ADCC, PBMC killing (LDH), HCC1806, Maximum killing (%) [2]: 38%
EC50 [3]: 450 pM
EC50 [4]: 380 pM
EC50 [5]: 370 pM
EC50 (human Trop-2-His [6]): 43 pM
EC50 (Macaque Trop-2-His): 48 pM

B4: hz-Ab21-1.1 (antibody, human IgG1, kappa, V domains shown)
VH: EVQLVESGGGLVKPGGSLRLSCAASGFTLRNYGVHWVRQAPGKGLEWVGVIWSSGTTDYAAPVKGRFTISKDNSKNTLYLQMNSLKTEDTAVYYCTRDGDYDYYTMDYWGQGTLVTVSS
VL: EIVLTQSPATLSLSPGERATLSCRASKSVSTSAYSYIHWYQQKPGQAPRLLIYLTSNLESGIPARFSGSGSGTDFTLTISSLEPEDFAVYYCQHSRELPYTFGQGTKVEIKR
notes: Humanized antibody
EC50 [3]: 550 pM
EC50 [4]: 640 pM
EC50 [5]: 620 pM
EC50 (human Trop-2-His [6]): 162 pM
EC50 (Macaque Trop-2-His): 98 pM
Kd (human Trop-2-His [7]): 1200 pM
koff (human Trop-2-His [7]): 0.000514 s⁻¹
kon (human Trop-2-His [7]): 429000 M⁻¹ s⁻¹

B5: hz-Ab21-1.2 (antibody, human IgG1, kappa, V domains shown)
VH: EVQLVESGGGLVKPGGSLRLSCAASGFTLRNYGVHWVRQAPGKGLEWVGVIWSSGTTDYNAAFISRFTISKDNSKNTLYLQMNSLKTEDTAVYYCTRDGDYDYYTMDYWGQGTLVTVSS
VL: EIVLTQSPATLSLSPGERATLSCRASKSVSTSAYSYIHWYQQKPGQAPRLLIYLTSNLESGIPARFSGSGSGTDFTLTISSLEPEDFAVYYCQHSRELPYTFGQGTKVEIKR
notes: Humanized antibody
EC50 [3]: 660 pM
EC50 [4]: 1230 pM
EC50 [5]: 670 pM
EC50 (human Trop-2-His [6]): 248 pM
EC50 (Macaque Trop-2-His): 86 pM
Kd (human Trop-2-His [7]): 973 pM
koff (human Trop-2-His [7]): 0.000438 s⁻¹
kon (human Trop-2-His [7]): 450000 M⁻¹ s⁻¹
